Where only a bound is given, the exact number is not on record here.

Consider 13 sequences from the Immune Epitope Database (IEDB).

Experiment [1] deals with HLA-A*02:01. In words: IEDB peptide-MHC binding, purified MHC/direct/fluorescence; filed as Kd, often an IC50 or EC50 that approximates it; ≥ and ≤ were set here for values at or beyond the usual limits of such assays.
The target in experiment [2] is HLA-A*03:01. The description is as above.
The target in experiment [3] is HLA-B*27:03. Described as above.
Experiment [4] concerns the target HLA-A*02:12. The experiment is described as above.
Experiment [5] deals with HLA-B*39:01. The experiment is described as above. To be noted: source organism: Vibrio vulnificus CMCP6.
The target in experiment [6] is HLA-B*35:01. The experiment is described as above.
Experiment [7] addresses HLA-A*26:01. Described as above.
The target of experiment [8] is HLA-B*07:02. The experiment is described as above.
Experiment [9] concerns the target HLA-A*02:16. Described as above.
For experiment [10], the target named is HLA-A*02:03. The description is as above.
In experiment [11] the target is HLA-B*15:01. The description is as above.
Experiment [12] concerns the target HLA-A*02:11. Described as above.
In experiment [13] the target is HLA-B*46:01. The experiment is described as above.
Experiment [14] concerns the target HLA-A*24:03. The description is as above.
Experiment [15] deals with HLA-B*51:01. Described as above. To be noted: source organism: Vibrio vulnificus CMCP6.
Experiment [16] deals with HLA-A*02:19. The description is as above.
Experiment [17] concerns the target HLA-B*57:01. Described as above.
Experiment [18] addresses HLA-B*18:01. The experiment is described as above. The note with it: source organism: Salmonella enterica subsp. enterica serovar Typhimurium.
The target of experiment [19] is HLA-B*15:17. The description is as above. To be noted: source organism: Salmonella enterica subsp. enterica serovar Typhimurium.
The target of experiment [20] is HLA-C*06:02. The description is as above.
The target in experiment [21] is HLA-A*02:01. In words: IEDB peptide-MHC binding, cellular MHC/competitive/fluorescence; ≥ and ≤ were set here for values at or beyond the usual limits of such assays. The note with it: source organism: Mycobacterium tuberculosis.
Experiment [22] addresses HLA-B*73:01. In words: IEDB peptide-MHC binding, purified MHC/competitive/fluorescence; filed as Kd, often an IC50 or EC50 that approximates it; ≥ and ≤ were set here for values at or beyond the usual limits of such assays.
Experiment [23] addresses HLA-A*30:01. In words: IEDB peptide-MHC binding, purified MHC/direct/fluorescence; filed as Kd, often an IC50 or EC50 that approximates it; ≥ and ≤ were set here for values at or beyond the usual limits of such assays. The note with it: source organism: Stutzerimonas stutzeri.
The target of experiment [24] is HLA-A*69:01. The description is as above. To be noted: source organism: Stutzerimonas stutzeri.
The target of experiment [25] is HLA-A*01:01. The description is as above. To be noted: source organism: Stutzerimonas stutzeri.
Experiment [26] deals with HLA-B*27:05. The description is as above. The note with it: source organism: Stutzerimonas stutzeri.
Experiment [27] addresses HLA-B*08:01. Described as above. The note with it: source organism: Stutzerimonas stutzeri.
The target in experiment [28] is HLA-B*58:01. Described as above. To be noted: source organism: Stutzerimonas stutzeri.
For experiment [29], the target named is HLA-A*31:01. The description is as above. The note with it: source organism: Stutzerimonas stutzeri.
Experiment [30] addresses HLA-B*40:01. The description is as above. The note with it: source organism: Stutzerimonas stutzeri.
Experiment [31] has as its target HLA-C*07:02. The experiment is described as above. To be noted: source organism: Campylobacter jejuni.
Experiment [32] addresses HLA-C*04:01. The experiment is described as above.
Experiment [33] concerns the target HLA-A*24:02. In words: IEDB peptide-MHC binding, purified MHC/competitive/fluorescence; filed as Kd, often an IC50 or EC50 that approximates it; ≥ and ≤ were set here for values at or beyond the usual limits of such assays. The note with it: source organism: Campylobacter jejuni.
Experiment [34] deals with HLA-B*35:01. In words: IEDB peptide-MHC binding, cellular MHC/competitive/fluorescence; ≥ and ≤ were set here for values at or beyond the usual limits of such assays. The note with it: source organism: Mycobacterium tuberculosis H37Rv.
The target in experiment [35] is HLA-B*27:05. In words: IEDB peptide-MHC binding, purified MHC/competitive/fluorescence; filed as Kd, often an IC50 or EC50 that approximates it; ≥ and ≤ were set here for values at or beyond the usual limits of such assays. To be noted: source organism: Influenza A virus (A/Waikato/7/2000(H3N2)).
The target of experiment [36] is HLA-B*83:01. The description is as above. To be noted: source organism: Salmonella enterica subsp. enterica serovar Typhi.
Experiment [37] deals with HLA-B*45:06. The experiment is described as above. To be noted: source organism: Salmonella enterica subsp. enterica serovar Typhi.
Experiment [38] has as its target HLA-C*04:01. Described as above. The note with it: source organism: Salmonella enterica subsp. enterica serovar Typhi.
Experiment [39] has as its target HLA-B*15:42. The experiment is described as above. To be noted: source organism: Salmonella enterica subsp. enterica serovar Typhi.
Experiment [40] addresses HLA-B*40:01. Described as above. The note with it: source organism: Salmonella enterica subsp. enterica serovar Typhi.
Where [41] appears, read: source organism: Vibrio vulnificus CMCP6.
Where [42] appears, read: source organism: Salmonella enterica subsp. enterica serovar Typhimurium.
Setting [43] is: source organism: Stutzerimonas stutzeri.
Where [44] appears, read: source organism: Mammarenavirus lassaense.

By Kd is commonly meant the equilibrium constant for the complex coming apart. The low end stands for a tighter complex, the high end for a looser complex. Consider EMSLADYLY, for which the Kd in [1] (setting [41]) is not below 20 µM; in experiment [2] (setting [41]) it was not below 20 µM; in experiment [3] (setting [41]) it was not below 20 µM; in [4] (setting [41]) it was not below 20 µM; in [5], not below 20 µM; in experiment [6] (setting [41]) it was 0.027 µM. In addition, the Kd in experiment [7] (setting [41]) was not below 20 µM; in [8] (setting [41]), not below 20 µM; in [9] (setting [41]) it was not below 20 µM; in experiment [10] (setting [41]) it was not below 20 µM; in [11] (setting [41]), 0.029 µM; in [12] (setting [41]), not below 20 µM. For the same sequence, the Kd in [13] (setting [41]), in [14] (setting [41]), in [15], in [16] (setting [41]) and in experiment [17] (setting [41]) was not below 20 µM each time.

WPVMQWLTA: the equilibrium dissociation constant (Kd) is not below 20 µM in experiment [18]; not below 20 µM in [1] (setting [42]); not below 20 µM in [2] (setting [42]); not below 20 µM in experiment [3] (setting [42]); not below 20 µM in [4] (setting [42]); 0.024 µM in experiment [6] (setting [42]). Moreover, the Kd in experiment [7] (setting [42]) is not below 20 µM; in [8] (setting [42]), 0.289 µM; in experiment [9] (setting [42]), not below 20 µM; in experiment [10] (setting [42]), not below 20 µM; in experiment [11] (setting [42]), 8 µM; in [12] (setting [42]), not below 20 µM. In addition, the Kd in experiment [13] (setting [42]), in experiment [19], in experiment [16] (setting [42]) and in experiment [17] (setting [42]) was not below 20 µM each time.

Consider CRRLNTKYL, for which, in [20] (source organism: Aquifex aeolicus VF5), the Kd worked out at 0.173 µM.

What is called IC50 is the concentration that inhibits the measured activity by half. Higher therefore signals lower potency. Sequence TIPEALAAV displayed an IC50 in [21] of 2.8 µM.

With SRFLRRPAQ, in experiment [22] (source organism: Burkholderia vietnamiensis G4), the Kd is 0.67 µM.

Consider GRGQILLGK, for which the Kd was 5.95 µM in experiment [1] (setting [43]); not below 5 µM in experiment [23]; not below 20 µM in [24]; not below 20 µM in [25]; 0.321 µM in [26]; not below 20 µM in [7] (setting [43]). The Kd in experiment [8] (setting [43]), in [27], in experiment [11] (setting [43]), in [28], in experiment [29] and in experiment [30] was not below 20 µM throughout. Further, the equilibrium dissociation constant (Kd) in experiment [22] (setting [43]) was not below 20 µM.

With LYSRSFWFF, the Kd in experiment [31] was 0.206 µM; in experiment [32] (source organism: Campylobacter jejuni), not below 20 µM; in experiment [33], not above 0.0001 µM.

In the case of IPAEFLENF, the IC50 in experiment [34] was 1 µM.

For FYADPKRYF, the figures for the Kd in experiment [32] (setting [44]) and in experiment [14] (setting [44]) were not below 20 µM and 0.008 µM, respectively.

Turning to IPAKFLEGL, the IC50 in [34] turned out to be 7.1 µM.

In the case of YRTLLMNEL, the Kd in experiment [20] (source organism: Influenza A virus (A/Waikato/7/2000(H3N2))) was 0.009 µM; in experiment [35], 0.0539 µM.

In experiment [21], NLLVTGFDT had an IC50 of 2.4 µM.

With AEFVFSCGI, the Kd in [36] was not below 5 µM; in experiment [37], not below 5 µM; in experiment [38] it was not below 5 µM; in [39], not below 5 µM; in experiment [40] it was 0.0084 µM.
